According to EP2747783B1 (Ablynx N.V., dated 2017):
Residue numbers refer to the chain shown, from its start. Numbers in names are those of the source.

Tests used:
[1] = target: T1, human c-Met, cell membrane expressed (A549, BxPC-3, myeloma cells) (human, UniProt P08581 25-1390); assay: cell-based or functional assay
[2] = target: T2, recombinant human c-Met/Fc chimera (R&D systems) (human); assay: Alphascreen; competition with 100 pM biotinylated hHGF for c-MET/Fc
T2 construct: Bought protein; also called hc-Met/Fc; hu c-Met/Fc

[3] = target: T1, human c-Met, cell membrane expressed …; assay: cell-based or functional assay; remark: listed apart in the source
[4] = target: T1, human c-Met, cell membrane expressed …; assay: cell-based or functional assay; remark: listed apart in the source
[5] = target: T2, recombinant human c-Met/Fc chimera (R&D …); assay: SPR (ProteOn); c-Met/Fc captured by anti-human IgG(Fc)

T1 sequence (P08581 25-1390 limits assumed, form in doubt): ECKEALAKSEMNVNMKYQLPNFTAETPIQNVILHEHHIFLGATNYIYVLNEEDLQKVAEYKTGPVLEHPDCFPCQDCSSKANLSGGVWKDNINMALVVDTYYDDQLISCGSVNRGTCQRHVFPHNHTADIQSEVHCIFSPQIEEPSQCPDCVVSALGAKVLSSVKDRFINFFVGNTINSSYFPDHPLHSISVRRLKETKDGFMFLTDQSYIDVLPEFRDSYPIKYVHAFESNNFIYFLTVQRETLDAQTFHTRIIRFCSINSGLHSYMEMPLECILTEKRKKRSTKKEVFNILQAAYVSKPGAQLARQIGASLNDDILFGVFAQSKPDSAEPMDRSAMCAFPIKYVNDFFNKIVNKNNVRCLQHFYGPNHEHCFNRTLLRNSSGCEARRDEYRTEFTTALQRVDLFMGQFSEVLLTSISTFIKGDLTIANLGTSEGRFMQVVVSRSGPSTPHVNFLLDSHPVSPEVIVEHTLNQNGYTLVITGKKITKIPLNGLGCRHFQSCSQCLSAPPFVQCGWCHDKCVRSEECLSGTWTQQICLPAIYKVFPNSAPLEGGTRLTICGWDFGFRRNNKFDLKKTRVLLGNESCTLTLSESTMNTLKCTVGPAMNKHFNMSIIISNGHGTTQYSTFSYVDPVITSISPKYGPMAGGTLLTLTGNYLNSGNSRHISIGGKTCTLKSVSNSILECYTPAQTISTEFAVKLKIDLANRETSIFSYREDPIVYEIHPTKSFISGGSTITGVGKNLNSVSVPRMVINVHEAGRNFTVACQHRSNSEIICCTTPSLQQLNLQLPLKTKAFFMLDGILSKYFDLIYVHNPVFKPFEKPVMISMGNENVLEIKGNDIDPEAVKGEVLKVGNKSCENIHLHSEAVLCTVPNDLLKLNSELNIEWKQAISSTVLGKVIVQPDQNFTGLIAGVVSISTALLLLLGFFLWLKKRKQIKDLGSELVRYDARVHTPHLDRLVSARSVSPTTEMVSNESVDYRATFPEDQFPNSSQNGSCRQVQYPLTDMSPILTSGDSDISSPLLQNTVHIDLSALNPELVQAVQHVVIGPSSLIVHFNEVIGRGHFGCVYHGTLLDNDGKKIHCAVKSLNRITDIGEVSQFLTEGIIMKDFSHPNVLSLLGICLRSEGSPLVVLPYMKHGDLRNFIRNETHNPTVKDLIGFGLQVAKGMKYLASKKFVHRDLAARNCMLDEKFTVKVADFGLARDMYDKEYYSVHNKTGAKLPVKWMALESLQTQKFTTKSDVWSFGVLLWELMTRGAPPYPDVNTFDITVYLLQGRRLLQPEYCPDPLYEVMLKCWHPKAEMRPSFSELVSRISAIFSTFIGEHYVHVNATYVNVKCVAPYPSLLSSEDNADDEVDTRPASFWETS
T2 sequence (chain, as listed by the source mutant limits assumed): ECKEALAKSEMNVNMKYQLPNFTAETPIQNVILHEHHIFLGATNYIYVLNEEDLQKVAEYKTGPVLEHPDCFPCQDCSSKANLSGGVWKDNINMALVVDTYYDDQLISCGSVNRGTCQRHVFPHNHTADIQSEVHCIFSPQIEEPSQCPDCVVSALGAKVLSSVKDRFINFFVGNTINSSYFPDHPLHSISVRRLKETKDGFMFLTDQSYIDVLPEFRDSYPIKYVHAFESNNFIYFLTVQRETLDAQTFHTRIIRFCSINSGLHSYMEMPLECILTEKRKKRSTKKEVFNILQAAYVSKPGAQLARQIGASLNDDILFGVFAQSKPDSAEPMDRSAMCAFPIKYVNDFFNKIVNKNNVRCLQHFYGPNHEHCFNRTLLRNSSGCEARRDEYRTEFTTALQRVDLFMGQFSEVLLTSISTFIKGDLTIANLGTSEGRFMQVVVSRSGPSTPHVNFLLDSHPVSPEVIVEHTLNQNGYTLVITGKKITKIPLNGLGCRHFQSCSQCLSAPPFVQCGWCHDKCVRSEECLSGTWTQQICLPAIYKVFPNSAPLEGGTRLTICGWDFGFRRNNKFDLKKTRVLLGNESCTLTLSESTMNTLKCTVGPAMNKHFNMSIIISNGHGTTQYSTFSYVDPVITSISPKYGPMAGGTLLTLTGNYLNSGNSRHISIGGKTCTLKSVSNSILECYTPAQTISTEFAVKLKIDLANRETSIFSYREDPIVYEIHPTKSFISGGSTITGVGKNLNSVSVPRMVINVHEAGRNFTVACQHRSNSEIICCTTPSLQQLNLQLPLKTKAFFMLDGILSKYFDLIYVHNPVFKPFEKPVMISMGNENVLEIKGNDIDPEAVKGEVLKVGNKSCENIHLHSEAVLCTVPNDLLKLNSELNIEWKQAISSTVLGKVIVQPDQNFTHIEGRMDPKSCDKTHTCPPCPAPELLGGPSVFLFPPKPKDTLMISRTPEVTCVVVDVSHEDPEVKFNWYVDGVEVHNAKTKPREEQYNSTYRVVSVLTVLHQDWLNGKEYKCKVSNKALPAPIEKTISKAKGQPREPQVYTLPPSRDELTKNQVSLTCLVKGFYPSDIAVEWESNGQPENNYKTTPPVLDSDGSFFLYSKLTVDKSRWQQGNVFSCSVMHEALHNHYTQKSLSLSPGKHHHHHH

B1: A007900184 (33H10-3xFLAG-His6) (VHH)
VHH: EVQLVESGGGLVQAGGSLRLSCAASGFTFDDYAIGWFRQAPGEEREGVSSISSTYGLTYYADSVKGRFTISSSNAKNTVYLQMNNLKPEDTAVYYCAATPIERLGLDAYEYDYWGQGTLVTVSS
IC50, c-Met phosphorylation [1]: 79 nM

B2: A007901247 (VHH)
VHH: B1 VHH with A14P, E43K, S73D, A75S, N85S, K87R, E102G, R103L, L104I
IC50, c-Met phosphorylation [1]: 12.8 nM

B3: A007901246 (VHH)
VHH: B1 VHH with A14P, T28A, S73D, A75S, N85S, K87R, E102G, R103L, L104I
IC50, Proliferation assay, plate 1 [1]: 1.88 nM
IC50, c-Met phosphorylation [1]: 3.44 nM

B4: A007901245 (VHH)
VHH: B1 VHH with A14P, S73D, A75S, N85S, K87R, E102G, R103L, L104I
IC50, Proliferation assay, plate 1 [1]: 3.69 nM
IC50, c-Met phosphorylation [1]: 5.41 nM

B5: A007901248 (VHH)
VHH: B1 VHH with A14P, T28A, E43K, S73D, A75S, N85S, K87R, E102G, R103L, L104I
IC50, c-Met phosphorylation [1]: 11.5 nM

B6: A007901249 (VHH)
VHH: B1 VHH with A14P, E46L, S73D, A75S, N85S, K87R, E102G, R103L, L104I
IC50, Proliferation assay, plate 2 [1]: 1.93 nM
IC50, c-Met phosphorylation [1]: 2.81 nM

B7: A007901252 (VHH)
VHH: EVQLVESGGGLVQPGGSLRLSCAASGFAFDDYAIGWFRQAPGKERLGVSSISSTYGLTYYADSVKGRFTISSDNSKNTVYLQMNSLRPEDTAVYYCAATPIGLIGLDAYEYDYWGQGTLVTVSS
IC50, c-Met phosphorylation [1]: 4.16 nM

B8: A007901250 (VHH)
VHH: B7 VHH with K43E
IC50, Proliferation assay, plate 1 [1]: 2.29 nM
IC50, Proliferation assay, plate 2 [1]: 1.32 nM
IC50, c-Met phosphorylation [1]: 2.34 nM

B9: A007901253 (VHH)
VHH: B7 VHH with A28T, K43E, L46E, S63P
IC50, c-Met phosphorylation [1]: 4.84 nM

B10: A007901251 (VHH)
VHH: B7 VHH with A28T
IC50, c-Met phosphorylation [1]: 4.98 nM

B11: A007901219 (A00790105-9GS-Alb23) (bispecific antibody)
chain: DVQLVESGGGLVQPGGSLRLSCAASGFILDYYAIGWFRQAPGKEREGVLCIDASDDITYYADSVKGRFTISRDNSKNTVYLQMNSLRPEDTAVYYCATPIGLSSSCLLEYDYDYWGQGTLVTVSSGGGGSGGGSEVQLLESGGGLVQPGGSLRLSCAASGFTFRSFGMSWVRQAPGKGPEWVSSISGSGSDTLYADSVKGRFTISRDNSKNTLYLQMNSLRPEDTAVYYCTIGGSLSRSSQGTLVTVSS
notes: also called A007901219 (Alb23)
fold improved potency as compared to 5D5 Fab v2 [2]: > 5 fold
IC50, cMET phosphorylation assay, + HSA [3]: 4.2 nM
IC50, cMET phosphorylation assay, - HSA [3]: 5.41 nM

B12: 04E09(L49S) (SEQ ID NO: 23) tagged with 3xFlag-His6 (VHH)
VHH: EVQLVESGGGLVQPGGSLRLSCAASGFILDYYAIGWFRQAPGKEREGVSCIDASDDITYYADSVKGRFTISRDNAKNTVYLQMNSLKPEDTGVYYCATPIGLSSSCLLEYDYDYWGQGTLVTVSS
IC50, HGF-dependent c-Met phosphorylation [4]: 3.1 nM

B13: 04E09(C22A/C92S) (SEQ ID NO: 25) tagged with 3xFlag-His6 (VHH)
VHH: EVQLVESGGGLVQPGGSLRLSAAASGFILDYYAIGWFRQAPGKEREGVLCIDASDDITYYADSVKGRFTISRDNAKNTVYLQMNSLKPEDTGVYYSATPIGLSSSCLLEYDYDYWGQGTLVTVSSGAADYKDHDGDYKDHDIDYKDDDDKGAAHHHHHH
IC50, HGF-dependent c-Met phosphorylation [4]: 3.8 nM

B14: 04E09(C50S/C100bG) (SEQ ID NO: 24) tagged with 3xFlag-His6 (VHH)
VHH: B12 VHH with S49L, C50S, C106G
fold lower on-rate and off-rates against 04E09-9GS-Alb11 and 04E09 (C22A/C92S) [5]: 10 fold
